Holding throughout (assay): cell_activity
Series [1] has as its target IA44 R267H (Escherichia coli) (UniProt P0A9E0). The settings on record: twice the Tmax of IA; E. coli HC175.
Series [2] addresses IA32 L39M,S127C (Escherichia coli) (UniProt P0A9E0). The settings on record: half the Tmax of IA; E. coli HC175.
Series [3] has as its target IA (Idi-AraC DBD chimera) (Escherichia coli) (UniProt P0A9E0). Particulars: no mevalonate.

As to “TAGCATTTTTATCCATAAGATTAGCGGATCCTACCTGA (double strand) [I1I2 in PBAD]”, the figures for the activity (Tmax relative to IA) in series [1] and in series [2] were 2 and 0.5, respectively. For the same sequence, the activity in series [3] (0.36 with 10 mM mevalonate, E. coli HC175) was 1 relative RFP.
Take “TAGCGGATCCTACCTGAAGATTAGCATTTTTATCCATA (double strand) [I2I1 in PBAD]”: in series [3] (0.56 with 10 mM mevalonate), the activity was 1.12 relative RFP.

The record behind these values is patent publication US20150353614.
